Values quoted from earlier work, collected in paper PMC10167482.

How the values were obtained:
IFNAR2 (Homo sapiens) = IFNAR2 (Homo sapiens) (UniProt P48551)
IFNAR1 (Homo sapiens) = IFNAR1 (Homo sapiens) (UniProt P17181)
UniProt P17181, sequence (P17181 28-436): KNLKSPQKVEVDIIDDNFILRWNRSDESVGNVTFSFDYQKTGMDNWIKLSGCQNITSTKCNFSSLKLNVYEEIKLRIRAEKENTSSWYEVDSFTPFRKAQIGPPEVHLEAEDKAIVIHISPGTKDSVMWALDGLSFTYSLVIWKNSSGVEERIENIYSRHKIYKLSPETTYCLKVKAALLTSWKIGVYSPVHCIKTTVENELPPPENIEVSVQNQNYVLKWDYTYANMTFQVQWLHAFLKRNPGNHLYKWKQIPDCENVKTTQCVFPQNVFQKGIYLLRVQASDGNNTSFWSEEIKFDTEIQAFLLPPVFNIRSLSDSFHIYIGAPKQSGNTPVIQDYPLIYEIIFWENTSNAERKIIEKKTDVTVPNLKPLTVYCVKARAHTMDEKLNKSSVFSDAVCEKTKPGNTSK

UniProt P48551, sequence (P48551 27-243): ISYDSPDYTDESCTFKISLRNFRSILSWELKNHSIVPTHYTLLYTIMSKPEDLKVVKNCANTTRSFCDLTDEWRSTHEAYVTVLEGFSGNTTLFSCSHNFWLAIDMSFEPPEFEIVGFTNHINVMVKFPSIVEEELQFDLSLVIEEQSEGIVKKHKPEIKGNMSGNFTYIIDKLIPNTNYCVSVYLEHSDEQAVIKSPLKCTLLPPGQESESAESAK

IFN-β (from UniProt P01574)
Kd (IFNAR2 (Homo sapiens)): 0.2 nM
Kd (IFNAR1 (Homo sapiens)): 50 nM
